IntAct's records for PubMed 31515488

B1: KH domain-containing, RNA-binding, signal transduction-associated protein 2 (Homo sapiens), Q5VWX1 (parent)
chain: MEEEKYLPELMAEKDSLDPSFVHASRLLAEEIEKFQGSDGKKEDEEKKYLDVISNKNIKLSERVLIPVKQYPKFNFVGKLLGPRGNSLKRLQEETGAKMSILGKGSMRDKAKEEELRKSGEAKYAHLSDELHVLIEVFAPPGEAYSRMSHALEEIKKFLVPDYNDEIRQEQLRELSYLNGSEDSGRGRGIRGRGIRIAPTAPSRGRGGAIPPPPPPGRGVLTPRGSTVTRGALPVPPVARGVPTPRARGAPTVPGYRAPPPPAHEAYEEYGYDDGYGGEYDDQTYETYDNSYATQTQSVPEYYDYGHGVSEDAYDSYAPEEWATTRSSLKAPPQRSARGGYREHPYGRY
B2: Sodium channel modifier 1 (Homo sapiens), Q9BWG6 (parent)
chain: MSFKREGDDWSQLNVLKKRRVGDLLASYIPEDEALMLRDGRFACAICPHRPVLDTLAMLTAHRAGKKHLSSLQLFYGKKQPGKERKQNPKHQNELRREETKAEAPLLTQTRLITQSALHRAPHYNSCCRRKYRPEAPGPSVSLSPMPPSEVKLQSGKISREPEPAAGPQAEESATVSAPAPMSPTRRRALDHYLTLRSSGWIPDGRGRWVKDENVEFDSDEEEPPDLPLD
B3: Transcription factor 12 (Homo sapiens), Q99081-3 (parent)
chain: MNPQQQRMAAIGTDKELSDLLDFSAMFSPPVNSGKTRPTTLGSSQFSGSGIDERGGTTSWGTSGQPSPSYDSSRGFTDSPHYSDHLNDSRLGAHEGLSPTPFMNSNLMGKTSERGSFSLYSRDTGLPGCQSSLLRQDLGLGSPAQLSSSGKPGTAYYSFSATSSRRRPLHDSAALDPLQAKKVRKVPPGLPSSVYAPSPNSDDFNRESPSYPSPKPPTSMFASTFFMQDGTHNSSDLWSSSNGMSQPGFGGILGTSTSHMSQSSSYGNLHSHDRLSYPPHSVSPTDINTSLPPMSSFHRGSTSSSPYVAASHTPPINGSDSILGTRGNAAGSSQTGDALGKALASIYSPDHTSSSFPSNPSTPVGSPSPLTGTSQWPRPGGQAPSSPSYENSLHSLKNRVEQQLHEHLQDAMSFLKDVCEQSRMEDRLDRLDDAIHVLRNHAVGPSTSLPAGHSDIHSLLGPSHNAPIGSLNSNYGGSSLVASSRSASMVGTHREDSVSLNGNHSVLSSTVTTSSTDLNHKTQENYRGGLQSQSGTVVTTEIKTENKEKDENLHEPPSSDDMKSDDESSQKDIKVSSRGRTSSTNEDEDLNPEQKIEREKERRMANNARERLRVRDINEAFKELGRMCQLHLKSEKPQTKLLILHQAVAVILSLEQQVRERNLNPKAACLKRREEEKVSAVSAEPPTTLPGTHPGLSETTNPMGHM
partner: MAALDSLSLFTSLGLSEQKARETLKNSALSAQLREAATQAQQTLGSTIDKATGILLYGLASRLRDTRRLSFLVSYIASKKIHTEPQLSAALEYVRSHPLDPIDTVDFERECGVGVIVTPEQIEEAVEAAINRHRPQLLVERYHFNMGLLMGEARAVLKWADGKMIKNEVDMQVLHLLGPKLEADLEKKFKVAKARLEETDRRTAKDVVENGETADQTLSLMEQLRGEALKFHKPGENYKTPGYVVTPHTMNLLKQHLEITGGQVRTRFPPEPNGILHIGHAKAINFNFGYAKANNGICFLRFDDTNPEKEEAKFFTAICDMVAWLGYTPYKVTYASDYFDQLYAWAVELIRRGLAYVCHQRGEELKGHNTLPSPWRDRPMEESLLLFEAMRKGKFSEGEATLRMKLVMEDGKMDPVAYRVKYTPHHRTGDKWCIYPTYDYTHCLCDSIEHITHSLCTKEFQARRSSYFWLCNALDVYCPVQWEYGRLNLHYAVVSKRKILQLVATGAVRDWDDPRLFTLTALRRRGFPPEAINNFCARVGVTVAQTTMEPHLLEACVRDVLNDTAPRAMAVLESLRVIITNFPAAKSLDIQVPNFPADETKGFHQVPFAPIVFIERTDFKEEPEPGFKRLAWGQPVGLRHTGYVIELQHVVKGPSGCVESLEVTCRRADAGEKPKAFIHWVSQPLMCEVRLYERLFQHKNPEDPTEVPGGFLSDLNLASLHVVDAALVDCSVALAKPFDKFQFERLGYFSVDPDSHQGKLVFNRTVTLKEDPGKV
B4: Alpha-taxilin (Homo sapiens), P40222 (parent)
chain: MKNQDKKNGAAKQSNPKSSPGQPEAGPEGAQERPSQAAPAVEAEGPGSSQAPRKPEGAQARTAQSGALRDVSEELSRQLEDILSTYCVDNNQGGPGEDGAQGEPAEPEDAEKSRTYVARNGEPEPTPVVNGEKEPSKGDPNTEEIRQSDEVGDRDHRRPQEKKKAKGLGKEITLLMQTLNTLSTPEEKLAALCKKYAELLEEHRNSQKQMKLLQKKQSQLVQEKDHLRGEHSKAVLARSKLESLCRELQRHNRSLKEEGVQRAREEEEKRKEVTSHFQVTLNDIQLQMEQHNERNSKLRQENMELAERLKKLIEQYELREEHIDKVFKHKDLQQQLVDAKLQQAQEMLKEAEERHQREKDFLLKEAVESQRMCELMKQQETHLKQQLALYTEKFEEFQNTLSKSSEVFTTFKQEMEKMTKKIKKLEKETTMYRSRWESSNKALLEMAEEKTVRDKELEGLQVKIQRLEKLCRALQTERNDLNKRVQDLSAGGQGSLTDSGPERRPEGPGAQAPSSPRVTEAPCYPGAPSTEASGQTGPQEPTSARA
B5: Fas-activated serine/threonine kinase (Homo sapiens), Q14296-1 (parent)
chain: MRRPRGEPGPRAPRPTEGATCAGPGESWSPSPNSMLRVLLSAQTSPARLSGLLLIPPVQPCCLGPSKWGDRPVGGGPSAGPVQGLQRLLEQAKSPGELLRWLGQNPSKVRAHHYSVALRRLGQLLGSRPRPPPVEQVTLQDLSQLIIRNCPSFDIHTIHVCLHLAVLLGFPSDGPLVCALEQERRLRLPPKPPPPLQPLLRGGQGLEAALSCPRFLRYPRQHLISSLAEARPEELTPHVMVLLAQHLARHRLREPQLLEAIAHFLVVQETQLSSKVVQKLVLPFGRLNYLPLEQQFMPCLERILAREAGVAPLATVNILMSLCQLRCLPFRALHFVFSPGFINYISGTPHALIVRRYLSLLDTAVELELPGYRGPRLPRRQQVPIFPQPLITDRARCKYSHKDIVAEGLRQLLGEEKYRQDLTVPPGYCTDFLLCASSSGAVLPVRTQDPFLPYPPRSCPQGQAASSATTRDPAQRVVLVLRERWHFCRDGRVLLGSRALRERHLGLMGYQLLPLPFEELESQRGLPQLKSYLRQKLQALGLRWGPEGG
partner: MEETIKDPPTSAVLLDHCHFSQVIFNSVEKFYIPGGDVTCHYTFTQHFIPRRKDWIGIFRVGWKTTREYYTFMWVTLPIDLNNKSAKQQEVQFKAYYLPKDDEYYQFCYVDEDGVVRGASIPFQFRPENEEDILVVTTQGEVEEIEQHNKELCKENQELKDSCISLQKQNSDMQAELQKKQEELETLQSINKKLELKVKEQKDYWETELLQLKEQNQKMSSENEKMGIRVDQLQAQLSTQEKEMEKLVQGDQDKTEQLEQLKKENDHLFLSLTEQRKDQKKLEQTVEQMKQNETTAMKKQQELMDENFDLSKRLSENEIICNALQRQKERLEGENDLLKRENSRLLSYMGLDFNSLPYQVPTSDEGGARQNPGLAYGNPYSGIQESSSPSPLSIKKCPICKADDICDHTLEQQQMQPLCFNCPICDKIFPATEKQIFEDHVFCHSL

Variants of: B1
Details: with ews_human EWSR1, Q01844

effect of a mutation on the interaction	Variant
with no effect	P333L

Variants of: B1
Details: with ptk6_human PTK6, Q13882

effect of a mutation on the interaction	Variant
with no effect	P333L

Variants of: B1
Details: with hbaz_human HBZ

effect of a mutation on the interaction	Variant
with no effect	P333L

Variants of: B2
Details: with hm20a_human HMG20A

effect of a mutation on the interaction	Variant
with no effect	R206P

Variants of: B2
Details: with trim1_human MID2, Q9UJV3

effect of a mutation on the interaction	Variant
with no effect	R206P

Variants of: B2
Details: with pls1_human PLSCR1, O15162
Sequence of pls1_human PLSCR1, O15162 (O15162 whole entry): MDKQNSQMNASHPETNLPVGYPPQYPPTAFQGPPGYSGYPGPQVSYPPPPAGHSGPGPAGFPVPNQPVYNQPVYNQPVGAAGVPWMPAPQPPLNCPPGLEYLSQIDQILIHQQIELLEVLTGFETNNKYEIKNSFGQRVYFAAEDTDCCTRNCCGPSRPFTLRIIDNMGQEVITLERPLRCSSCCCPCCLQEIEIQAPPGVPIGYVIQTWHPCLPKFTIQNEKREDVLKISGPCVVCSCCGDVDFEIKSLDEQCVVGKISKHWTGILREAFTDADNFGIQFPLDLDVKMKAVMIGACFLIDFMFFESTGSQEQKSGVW

effect of a mutation on the interaction	Variant
with no effect	R206P

Variants of: B2
Details: with inca1_human INCA1, Q0VD86
Sequence of inca1_human INCA1, Q0VD86 (Q0VD86 whole entry): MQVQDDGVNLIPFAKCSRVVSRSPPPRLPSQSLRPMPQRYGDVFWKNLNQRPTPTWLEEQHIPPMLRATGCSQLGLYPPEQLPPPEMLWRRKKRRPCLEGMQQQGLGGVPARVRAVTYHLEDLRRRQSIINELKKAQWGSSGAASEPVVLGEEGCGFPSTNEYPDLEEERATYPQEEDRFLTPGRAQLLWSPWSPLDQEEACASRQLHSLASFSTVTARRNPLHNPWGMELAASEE

effect of a mutation on the interaction	Variant
with no effect	R206P

Variants of: B3
Details: with syq_human QARS1, P47897

effect of a mutation on the interaction	Variant
with no effect	A482V
with no effect	S446F
with no effect	Y120C
with no effect	R74G
with no effect	N606H
with no effect	A155T

Variants of: B4
Details: with cc136_human CCDC136, Q96JN2
Sequence of cc136_human CCDC136, Q96JN2 (Q96JN2 whole entry): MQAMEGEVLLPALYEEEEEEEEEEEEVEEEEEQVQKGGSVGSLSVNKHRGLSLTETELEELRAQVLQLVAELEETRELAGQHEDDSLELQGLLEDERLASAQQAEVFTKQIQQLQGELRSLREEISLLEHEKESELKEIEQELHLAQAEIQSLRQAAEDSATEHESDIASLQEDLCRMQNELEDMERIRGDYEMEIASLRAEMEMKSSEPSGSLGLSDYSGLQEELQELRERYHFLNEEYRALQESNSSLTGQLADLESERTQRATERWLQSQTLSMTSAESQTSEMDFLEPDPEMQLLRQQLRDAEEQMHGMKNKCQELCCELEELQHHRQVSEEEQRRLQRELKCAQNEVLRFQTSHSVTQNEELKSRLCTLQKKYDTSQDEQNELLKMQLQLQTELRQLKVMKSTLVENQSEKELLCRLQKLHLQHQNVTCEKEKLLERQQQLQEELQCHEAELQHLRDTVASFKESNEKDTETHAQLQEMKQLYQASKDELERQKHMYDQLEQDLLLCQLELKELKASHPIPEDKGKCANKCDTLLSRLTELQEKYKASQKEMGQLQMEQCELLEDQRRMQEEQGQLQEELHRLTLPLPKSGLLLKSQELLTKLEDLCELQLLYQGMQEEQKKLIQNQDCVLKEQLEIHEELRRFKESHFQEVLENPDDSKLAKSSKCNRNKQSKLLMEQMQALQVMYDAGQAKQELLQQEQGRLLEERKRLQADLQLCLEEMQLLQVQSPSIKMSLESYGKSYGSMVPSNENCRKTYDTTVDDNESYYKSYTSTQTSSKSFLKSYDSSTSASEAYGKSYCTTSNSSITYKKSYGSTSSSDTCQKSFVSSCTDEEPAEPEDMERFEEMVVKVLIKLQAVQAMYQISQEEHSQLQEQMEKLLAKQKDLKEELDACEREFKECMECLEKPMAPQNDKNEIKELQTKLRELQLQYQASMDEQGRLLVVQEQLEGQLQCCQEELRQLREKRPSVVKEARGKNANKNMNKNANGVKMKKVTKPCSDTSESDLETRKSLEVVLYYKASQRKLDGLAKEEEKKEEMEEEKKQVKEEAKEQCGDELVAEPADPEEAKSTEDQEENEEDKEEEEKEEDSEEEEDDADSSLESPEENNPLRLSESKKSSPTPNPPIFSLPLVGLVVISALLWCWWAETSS

effect of a mutation on the interaction	Variant
with no effect	S514R
with no effect	P541S

Variants of: B4
Details: with tfp11_human TFIP11, Q9UBB9
Sequence of tfp11_human TFIP11, Q9UBB9 (Q9UBB9 whole entry): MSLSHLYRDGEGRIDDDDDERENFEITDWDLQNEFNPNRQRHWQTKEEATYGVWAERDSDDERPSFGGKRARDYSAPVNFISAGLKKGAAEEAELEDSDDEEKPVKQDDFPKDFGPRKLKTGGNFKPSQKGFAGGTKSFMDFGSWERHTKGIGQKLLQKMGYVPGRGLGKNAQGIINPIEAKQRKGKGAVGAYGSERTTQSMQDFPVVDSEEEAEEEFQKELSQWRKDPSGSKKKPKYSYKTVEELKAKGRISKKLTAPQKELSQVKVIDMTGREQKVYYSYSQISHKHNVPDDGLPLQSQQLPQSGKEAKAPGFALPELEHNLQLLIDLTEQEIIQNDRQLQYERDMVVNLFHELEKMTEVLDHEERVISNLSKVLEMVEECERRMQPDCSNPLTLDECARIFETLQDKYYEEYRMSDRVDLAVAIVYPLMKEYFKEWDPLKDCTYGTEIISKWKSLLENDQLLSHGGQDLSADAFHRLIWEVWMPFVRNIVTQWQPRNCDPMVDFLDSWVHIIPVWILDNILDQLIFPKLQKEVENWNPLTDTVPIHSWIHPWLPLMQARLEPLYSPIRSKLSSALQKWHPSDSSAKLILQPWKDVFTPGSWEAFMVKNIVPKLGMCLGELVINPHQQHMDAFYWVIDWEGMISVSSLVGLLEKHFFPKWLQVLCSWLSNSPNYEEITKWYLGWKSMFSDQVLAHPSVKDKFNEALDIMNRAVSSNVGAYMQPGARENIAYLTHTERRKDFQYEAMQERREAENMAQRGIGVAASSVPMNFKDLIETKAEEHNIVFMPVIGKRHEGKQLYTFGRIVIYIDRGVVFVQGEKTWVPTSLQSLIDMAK

effect of a mutation on the interaction	Variant
with no effect	S514R
with no effect	P541S
disrupting interaction strength	R154G

Variants of: B4
Details: with ndc80_human NDC80, O14777
Sequence of ndc80_human NDC80, O14777 (O14777 whole entry): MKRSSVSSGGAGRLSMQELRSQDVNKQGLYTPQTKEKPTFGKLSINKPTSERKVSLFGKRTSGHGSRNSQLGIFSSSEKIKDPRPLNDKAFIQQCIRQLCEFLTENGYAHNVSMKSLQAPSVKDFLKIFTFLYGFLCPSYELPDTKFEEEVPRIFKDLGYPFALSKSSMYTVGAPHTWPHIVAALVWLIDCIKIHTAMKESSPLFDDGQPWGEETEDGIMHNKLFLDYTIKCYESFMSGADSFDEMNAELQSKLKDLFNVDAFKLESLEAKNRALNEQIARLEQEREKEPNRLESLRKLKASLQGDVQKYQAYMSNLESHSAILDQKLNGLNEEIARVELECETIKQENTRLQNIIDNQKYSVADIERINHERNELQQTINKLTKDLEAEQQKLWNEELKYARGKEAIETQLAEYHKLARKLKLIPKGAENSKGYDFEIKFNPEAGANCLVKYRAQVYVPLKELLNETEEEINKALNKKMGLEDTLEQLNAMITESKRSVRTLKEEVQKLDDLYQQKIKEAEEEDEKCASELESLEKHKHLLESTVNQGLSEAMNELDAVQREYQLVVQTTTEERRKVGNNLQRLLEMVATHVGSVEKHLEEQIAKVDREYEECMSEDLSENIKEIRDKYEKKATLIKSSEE

effect of a mutation on the interaction	Variant
with no effect	S514R
with no effect	P541S
disrupting interaction strength	R154G

Variants of: B4
Details: with cdr2_human CDR2, Q01850
Sequence of cdr2_human CDR2, Q01850 (Q01850 whole entry): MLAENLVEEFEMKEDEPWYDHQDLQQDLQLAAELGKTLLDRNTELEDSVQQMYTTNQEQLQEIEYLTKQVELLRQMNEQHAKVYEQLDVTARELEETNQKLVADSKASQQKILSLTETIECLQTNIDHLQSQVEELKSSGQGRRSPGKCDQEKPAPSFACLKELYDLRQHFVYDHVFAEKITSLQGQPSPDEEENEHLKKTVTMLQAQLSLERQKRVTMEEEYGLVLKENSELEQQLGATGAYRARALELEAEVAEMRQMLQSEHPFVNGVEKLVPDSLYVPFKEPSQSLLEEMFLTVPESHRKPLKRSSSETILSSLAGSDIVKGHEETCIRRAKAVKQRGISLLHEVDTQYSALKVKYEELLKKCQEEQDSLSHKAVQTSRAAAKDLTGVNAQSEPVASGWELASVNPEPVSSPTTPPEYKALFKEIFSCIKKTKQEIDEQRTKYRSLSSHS

effect of a mutation on the interaction	Variant
disrupting interaction strength	R154G

Variants of: B4
Details: with lipa1_human PPFIA1, Q13136
Sequence of lipa1_human PPFIA1, Q13136 (Q13136 whole entry): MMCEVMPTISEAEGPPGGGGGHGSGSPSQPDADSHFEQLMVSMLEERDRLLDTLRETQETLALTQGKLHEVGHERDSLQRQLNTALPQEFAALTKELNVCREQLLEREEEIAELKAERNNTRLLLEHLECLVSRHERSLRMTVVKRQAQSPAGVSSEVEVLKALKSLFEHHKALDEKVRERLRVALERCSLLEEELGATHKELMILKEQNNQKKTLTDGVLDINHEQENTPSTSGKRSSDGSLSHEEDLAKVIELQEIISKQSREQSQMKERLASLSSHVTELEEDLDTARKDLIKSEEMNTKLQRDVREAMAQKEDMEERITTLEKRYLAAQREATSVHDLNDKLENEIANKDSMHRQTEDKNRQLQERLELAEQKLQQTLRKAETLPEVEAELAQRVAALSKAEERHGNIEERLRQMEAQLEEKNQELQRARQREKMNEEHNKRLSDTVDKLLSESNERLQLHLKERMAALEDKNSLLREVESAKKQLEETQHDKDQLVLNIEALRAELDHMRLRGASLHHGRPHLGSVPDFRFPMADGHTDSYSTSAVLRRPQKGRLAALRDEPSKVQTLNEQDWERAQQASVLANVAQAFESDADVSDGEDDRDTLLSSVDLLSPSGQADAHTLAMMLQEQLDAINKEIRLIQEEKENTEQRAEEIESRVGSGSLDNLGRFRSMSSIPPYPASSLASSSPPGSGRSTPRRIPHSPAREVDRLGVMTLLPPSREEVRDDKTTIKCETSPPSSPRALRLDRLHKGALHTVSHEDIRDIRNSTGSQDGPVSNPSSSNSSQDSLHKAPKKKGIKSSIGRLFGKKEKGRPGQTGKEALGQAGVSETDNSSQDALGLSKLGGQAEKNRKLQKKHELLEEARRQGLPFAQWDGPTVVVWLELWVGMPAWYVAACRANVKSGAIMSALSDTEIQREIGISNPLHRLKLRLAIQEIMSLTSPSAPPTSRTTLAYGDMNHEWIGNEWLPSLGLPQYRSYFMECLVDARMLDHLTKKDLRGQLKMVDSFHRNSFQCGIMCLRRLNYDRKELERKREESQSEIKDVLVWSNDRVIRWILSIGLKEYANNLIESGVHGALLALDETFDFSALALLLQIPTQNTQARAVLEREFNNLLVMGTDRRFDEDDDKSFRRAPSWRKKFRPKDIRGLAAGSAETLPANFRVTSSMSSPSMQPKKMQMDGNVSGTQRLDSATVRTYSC

effect of a mutation on the interaction	Variant
with no effect	R154G

Variants of: B5
Details: with caco2_human CALCOCO2, Q13137

effect of a mutation on the interaction	Variant
with no effect	V424L
